Source: US20260273045A1

Target: OVA peptide SIINFEKL bound to H-2Kb MHC I on mouse phDC / BMDC (mouse)
Experiment: cell-based or functional assay

Proliferation of the OT1 CD8 T cells (CFSE dilution), coculture with titrated numbers of OVA mRNA LNP-transduced phDC: < 47%
Sequence: T cell receptor of OVA-specific OT1 CD8 T cells (C57Bl/6-Tg (TcraTcrb)1100Mjb/J mice)
